Measured values published in patent US8758763B2, “Archaeal polar lipid aggregates for administration to animals” (National Research Council of Canada, priority 2006, dated 2014).

Key:
EG.7 cells = assay: Cytotoxic T lymphocyte (CTL) assay, 51Cr release, spleen cells of immunized mice; type: in vivo, C57BL/6 mice; details: i.n. at 0, 7, 21 d, 10 μg OVA/immunization; spleen cells at 36-42 d; target EG.7 cells
Method: For conducting cytotoxic (cytotolytic) T Lymphocyte (CTL) assays, EL-4 and EG.7 (subclone of EL-4 that has been stably transfected with the gene encoding for OVA expression), cell lines were obtained from the American Type Culture Collection (ATCC, Manassas, Va., USA). Both cell lines were maintained in RPMI 1640 medium (Life Technologies, Grand Island, N.Y.) supplemented with 8% fetal bovine serum (FBS, Invitrogen Canada, Inc., Burlington, Ontario, Canada), except that 400 μg/ml G418 supplement (Invitrogen Canada Inc.) was also added for maintaining the EG.7 cell line. All cells were cultured at 37° C. in a humidified atmosphere of air containing 8% CO2. […]
After 5 days incubation (37° C., 8% CO2 in air), the cells were recovered, washed, and counted for use as effector cells for the CTL assay. […] The culture supernatants were collected and the released radioactivity in 70 μl aliquots for gamma counter or in 50 μl aliquots for beta counter, was measured after adding to 150 μl Optiphase Supermix^R scintillant (PerkinElmer LAS Canada, Inc., Woodbridge, Ontario, Canada). Percent specific cell lysis was calculated as 100×[(cpm experimental−cpm spontaneous)/cpm maximum−cpm spontaneous)]. […]

OVA [1] = type: in vivo, Balb/c mice
OVA [2] = assay: Anti-OVA antibody responses (ELISA) in immunized C57BL/6 mice; details: i.n. at 0, 7, 21 d, 10 μg OVA/immunization; 28 d

| Molecule | CTL response, specific cell lysis (EG.7 cells) | anti-OVA IgA responses (OVA [1]; mouse, in vivo) | anti-OVA IgA responses in fecal, vaginal wash and serum samples (OVA [2]) | serum IgG, IgG1 and IgG2a responses (OVA [2]) | anti-OVA IgA antibody responses (fecal, vaginal, nasal, bile, serum) (OVA [1]; 28 d) |
| --- | --- | --- | --- | --- | --- |
| OVA/saline: OVA in saline, no adjuvant control (protein, UniProt P01012 2-386, looked up) Ovalbumin: GSIGAASMEFCFDVFKELKVHHANENIFYCPIAIMSALAMVYLGAKDSTRTQINKVVRFDKLPGFGDSIEAQCGTSVNVHSSLRDILNQITKPNDVYSFSLASRLYAEERYPILPEYLQCVKELYRGGLEPINFQTAADQARELINSWVESQTNGIIRNVLQPSSVDSQTAMVLVNAIVFKGLWEKAFKDEDTQAMPFRVTEQESKPVQMMYQIGLFRVASMASEKMKILELPFASGTMSMLVLLPDEVSGLEQLESIINFEKLTEWTSSNVMEERKIKVYLPRMKMEEKYNLTSVLMAMGITDVFSSSANLSGISSAESLKISQAVHAAHAEINEAGREVVGSAEAGVDAASVSEEFRADHPFLFCIKHIATNAVLFFGRCVSP | no CTL response | negligible to not measurable | Little to no measurable | measurable, but smaller | – |
| OVA/CaCl2: OVA in saline supplemented with 15 mM CaCl2, no adjuvant group (protein, UniProt P01012 2-386, looked up) Ovalbumin: GSIGAASMEFCFDVFKELKVHHANENIFYCPIAIMSALAMVYLGAKDSTRTQINKVVRFDKLPGFGDSIEAQCGTSVNVHSSLRDILNQITKPNDVYSFSLASRLYAEERYPILPEYLQCVKELYRGGLEPINFQTAADQARELINSWVESQTNGIIRNVLQPSSVDSQTAMVLVNAIVFKGLWEKAFKDEDTQAMPFRVTEQESKPVQMMYQIGLFRVASMASEKMKILELPFASGTMSMLVLLPDEVSGLEQLESIINFEKLTEWTSSNVMEERKIKVYLPRMKMEEKYNLTSVLMAMGITDVFSSSANLSGISSAESLKISQAVHAAHAEINEAGREVVGSAEAGVDAASVSEEFRADHPFLFCIKHIATNAVLFFGRCVSP | – | – | – | – | little or no measurable |
